The values that follow come from patent US20170254807.

Data set [1] can be described thus: bead aggregation assay, flow cytometry, experiment 1, before the 90 min incubation. For orientation: A flow cytometer gives signals particle by particle.
Data set [2] can be described thus: bead aggregation assay, fluorescence microscopy.

B1: Fc-D3 (mBetacam D3 domain, aa 240-335, fused to human IgG1 Fc; pFUSE-Fc-D3) (protein)
chain: YGPYGLQVNSDKGLKVGEVFTVDLGEAVLFDCSADSYPPNTYSWIQRSDNTTHVIKHGPHLEVASEKVAQKTADYVCCAYNNITGRRDETRFTVII
On to B1, for which, in data set [1], the “P3 (aggregates) prior to incubation” value is listed as “P3 prior to incubation is 40.8%”.

B2: Fc-D1/D2 (mBetacam D1-D2 domain, aa 33-239, fused to human IgG1 Fc; pFUSE-Fc-D1/D2) (protein)
chain: LKVTVPSYTVHGIRGQALYLPVHYGFHTPASDIQIIWLFERSHTMPKYLLGSVNKSVVPDLEYQHKFTMMPPNASLLINPLQFTDEGNYIVKVNIQGNGTLSASQKIQVTVDDPVMKPMVQFHPASGAVEYVGNITLTCQVEGGTRLVYQWRKSGKPISINSSHSFSPQNNTLWIVPVTKEDIGNYTCLVSNPVSEMESDIIMPTIY
As to B2, the aggregate size result in data set [2] is given as “Aggregates of >100 beads were observed”.
